Data from the supplement of paper PMC9170038.

Tested on: MS2 coat protein
Assay: apparent KD of MS2 coat protein; higher = weaker reporter binding
Settings: Eterna round: R107
Experimental: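 RNA-MaP round R107: designed RNA switches with theophylline, tryptophan, arginine or FMN aptamers are transcribed on-chip within common flanks. They are titrated with SNAP-549-labelled MS2 coat protein in RNA-MaP buffer (100 mM Tris pH 7.5, 80 mM KCl, 4 mM MgCl2), without ligand or with the indicated ligand. Median apparent KD per design.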

[1] = input ligand: theophylline 20 uM
[2] = input ligand: tryptophan 2.4 mM
[3] = input ligand: theophylline 2 mM

Sequence | apparent KD of MS2 coat protein (input ligand: arginine 13.2 mM) | apparent KD of MS2 coat protein [1] | apparent KD of MS2 coat protein [2] | apparent KD of MS2 coat protein [3] | apparent KD of MS2 coat protein (input ligand: none)
AGCGAUAUGCAUGAUACCAGCUACAUGAGGAUCACCCAUGUGCGUCAGUAAUGACUGUGUAGCCCUUGGCAGCAUAGAGCAUGUA [Exclusion - Theophylline B (Freestyle 12)] | 29.5 nM | 47.2 nM | 34.7 nM | – | –
AGCGUUCGGUUUAUGCCGGACAAUGGGUGACGAGGACCGGUACGGCCGCCACUCGGGCGCCCGGUUACAUGAGGAUCACCCAUGU [Oresrile] | 74.3 nM | 190 nM | – | 200 nM | –
AGCUCAUAGAGUGAUACCAGACUACAUGAGGAUCACCCAUGUUUCUUUUGGUUAUCAUGUGUCCCUUGGCAGCACAAGAAGAGCA [JR_ExcTheophyB_Sub015] | 13.4 nM | 20.2 nM | 12.7 nM | – | –
AGCUCGCAUCCUCUAGCGUCAAAGACGCGUCGAGGACCGGUACGGCCGCCACUCGACUUGAGGAUCACCCAGGUCAAAGCGAGCA [TrypAX 13 #SwitchBubble #AlternativeMS2 #MS2Late #CuTurnoff] | 148 nM | 488 nM | 138 nM | 631 nM | 545 nM
AGGUGCGGCACGGCCGCCACUGCGGUGGUGUGACAUGAGGAUCACCCAUGUUGUCAUGCGGCCCUUAGGACCGGGUGGCGUGCCU [#1 Exclusion - Tryptophan B Attempt #16 (HarryS)] | 27.9 nM | 64.4 nM | – | 68.9 nM | –
AGUACUCGAACGGAUACCAGCCGGACAUGAGGAUCACCCAUGUCCUACCAUGUUUCGGUUGGCCCUUGGCAGCCGUUCGUGUACA [Omei Theo B SS A v1] | 207 nM | 428 nM | 736 nM | – | –
AGUACUCGAACGGAUACCAGCCGGACAUGAGGAUCACCCAUGUCCUACCAUUGUUCGGUUGGCCCUUGGCAGCCGUUCGUGUACA [Omei Theo B SS A v4] | 125 nM | 366 nM | 591 nM | 26.7 nM | 930 nM
AGUAUACAUUCUGAUACCAGAGACAUGAGGAUCACCCAUGUCCGAUCGUCCUGCCUCAGACUCCCUUGGCAGCAGGAUAUGUGCU [Exclusion Theophylline B GF5] | 16.2 nM | 21.8 nM | 16.6 nM | – | –
AGUCUUAAAGGAAGGAGCGCAGUCAUAACAUGAGGAUCACCCAUGUCGAGGUGAGGGUCAUUGCAGGUAGGUCGCCUUACUAAGA [Same State - Arginine B (Freestyle 6)] | 77.7 nM | 118 nM | 96.1 nM | 132 nM | 114 nM
AGUCUUAAUGGAAGGAGCGCAGUCAUAACAUGAGGAUCACCCAUGUCGAGGUGAGGGUCAUUGCAGGUAGGUCGCCAUACUAGAA [Same State - Arginine B (Freestyle 1)] | 131 nM | 222 nM | 125 nM | 186 nM | 153 nM
AGUGAUGACCGAAGGAGCGCGGGAAACAUGAGGAUCACCCAUGUACUCCUCAGUGUUAUAACGCAGGUAGGUCGCGGUUAUGGCU [X-ArgiB-ms2@26] | 148 nM | 296 nM | 279 nM | 328 nM | 180 nM
AGUUAAAUAUGUUAAUAACUAUUUACUGAAGGAGCGUGUUUUUACACAGGUAGGUCGCAGUGACAUGAGGAUCACCCAUGUAGUA [JR_SSArginiA_Sub012] | 31.3 nM | 49.7 nM | 33.4 nM | 43.5 nM | 37.5 nM
AUACAUGAGGAUCACCCAUGUCAUUCAGAAGGAGCGUCAUUAUUGACAGGUAGGUCGCUGAUAAAAUUUUUAUACAUUAUGUUUA [JR_SSArginiA_Sub014] | 31.9 nM | 20.9 nM | 17.3 nM | 18.1 nM | 16.3 nM
AUACAUGAGGAUCACCCAUGUCAUUCAGAAGGAGCGUCAUUUUAGACAGGUAGGUCGCUGUUAUUUUUAUUAUUCUUUAUGUUUU [JR_Nu_ExcArginiA_Sub025] | 19.4 nM | 27.2 nM | 20.5 nM | 21.3 nM | 20.1 nM
